Target: tau-RD (P301L/V337M)-YFP, stably expressed in HEK293 biosensor cells (UniProt P10636)
Experiment: cell-based or functional assay

Sequence of tau-RD (P301L/V337M)-YFP, stably expressed in HEK293 biosensor cells (P10636 561-689 P618L/V654M): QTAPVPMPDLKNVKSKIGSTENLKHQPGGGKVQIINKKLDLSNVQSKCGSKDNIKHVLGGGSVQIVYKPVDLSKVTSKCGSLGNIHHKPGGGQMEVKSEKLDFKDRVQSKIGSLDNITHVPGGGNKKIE

Question: How did the aggregate-containing HEK293 biosensor cells (punctate fluorescence after 48 h) on treatment with preformed heparin-induced tauP301L fibrils turn out when “Human tauP301L (0N4R), recombinant, N-terminal His tag (from UniProt P10636 2-758)” was run?
Answer: 38%
